Where a chain is given by its changes, count along the chain named.
B1: S009-F8-4.5 (antibody, human IgG1, kappa, V domains shown)
VH: QVQLQQPGAELVKPGASVKLSCKASGYTFTIYWMHWVKQRPGQGLEWIGMIHPNSGNTNYNEKFKSKATLTVDKSSSTAYMQLSSLTSEDSAVYYCSLIHWYFDVWGTGTTVTVSS
VL: QIVLTQSPAIMSASPGEKVTMTCSASSSVSYMYWYQQKPGSSPRLLIYDTSNLASGVPVRFSGSGSGTSYSLTISRMEAEDAATYYCQQWSSYPLTFGAGTKLELKR
B2: S009-F8-5.15 (antibody, human IgG1, kappa, V domains shown)
VH: QVQLQQPGTELVKPGASVKLSCKASGYTFTSYWMHWVKQRPGQGLEWIGHSNPSNGGTNYNEKFKSKATLTVDKSSSTAYMQLSSLTSEDSAVYYCARWVRGSNYEYFDVWGTGTTVTVSS
VL: DIVMTQSQKFMSTTVGDRVSIICKASQNVGSAVAWCQQKPGQSPKLLIYSASNRYTGVPDRFTGSGSGTDFTLTISNMQSEDLADYFCQQYSSYPLTFAGGTKLEIKR
B3: S009-F8-8.22 (antibody, human IgG1, kappa, V domains shown)
VH: EVQLQQSGPELVKPGASVKMSCKASGYTFTDYIIHWVKQSHGKSLEWIAYIFPNNGGTGYNQKFRGKATLTVNKSSSTAYMELRSLTSEDSAVYYCARWRLRQYFDVWGTGTTVTVSS
VL: B2 VL with T14I, I22T, S31T, C36Y, A99G
B4: S009-F8-9.16 (antibody, human IgG1, kappa, V domains shown)
VH: EVHLQQSGPVLVKPGASVKMSCKASGYTFTDYFMNWVKQSHGKSLEWIGVINPHNGYVNYNQKFQGRATLTVDKSSSTVYMELNSLTSEDSAVYHCARSAESAWFAYWGQRTLVTVSA
VL: DVLMTQTPLSLPVSLGDQVSISCRSSQSIVHVKGNTYLEWYLQKPGQSPELLIYKVSNRFSGVPDRFSGGGSGTDFTLKISRVEPEDLGVYYCFQGSHLPYTFGGGTKLEIKR
B5: S009-F8-12.13 (antibody, human IgG1, kappa, V domains shown)
VH: QVQLQQPGAELVKPGASVKLSCKASGYTFTSYWMHWVKQRPGQGLEWIGMIHPNSGSTNYNEKFKSKATLTVDKSSSTAYMQLSSLTSEDSAVYYCARRTPIITLVGHWYFDVWGTGTTVTVSS
VL: DIVMTQSHKFMSTSVGDRVSITCKASQDVGTAVAWYQQKPGQSPKLLIYWASTRHTGVPDRFTGSGSGTDFTLTISNVQSEDLADYFCQQYSSYPLTFGAGTKLELKR
B6: S009-F8-13.8 (antibody, human IgG1, kappa, V domains shown)
VH: EFQLQQSGPELVKPGASVKISCKASGYSFTDYNMNWVKQTNGKSLEWIGIINPNYGTSSYNQKFKGKATLTVDQSSSTAYMQLNSLTSEDSAVYYCARVGRDNSGFDYWGQGTTLTVSS
VL: B1 VL with L95P, A99S, K102E, L105I
B7: S009-F8-15.19 (antibody, human IgG1, kappa, V domains shown)
VH: EFQLQQSGPELVKPGASVKISCKASGYSFTDYNMNWVKQSNGKSLEWIGIINPYYGTTSNNQNFKGKATLTVDQSSSTAYMQLNSLTSDDSAVYYCARWLRRDAMDYWGQGTSVTVSS
VL: B5 VL with Q6P, T22A, T31S, A32S, A51T, L96W, A100G, L106I
B8: S009-F8-18.9 (antibody, human IgG1, kappa, V domains shown)
VH: EFQLQQSGPELVKPGASVKISCKASGYSFTDYNMNWVKQSNGKSLEWIGIINPNYGTTSYNQKFKGRATLTVDQSSSTAYVQLNSLTSEDSAVYYCARGGYDNEAMDYWGQGTSVTVSS
VL: QIVLTQSPAIMSASPGEKVTMTCSASSSVSYMHWYQQKSGTSPKRWIYDTSKLASGVPARFSGSGSGTSYSLTISSMEAEDAATYYCQQWSSNPPTFGAGTKLELKR
B9: S009-F8-19.21 (antibody, human IgG1, kappa, V domains shown)
VH: B8 VH with A24T, I50V, S59G, R67K, V81M, N103G, Q111H
VL: B8 VL with S30N, N93Y, A99G, L105I
B10: S009-F8-22.23 (antibody, human IgG1, kappa, V domains shown)
VH: QVQLKQSGPGLVQPSQSLSITCTVSGFSLFSYGVHWVRQSPGKGLEWLGVIWSGGSTDYNAAFISRLSISKDNSKSQVFFKMNSLQADDTAMYYCARNGGSMITTLYYAMDYWGQGTSVTVSS
VL: DVVMTQTPLSLPVSLGDQASISCRSSQSLVHSYGNTYLHWYLQKPGQSPKLLIYKVSNRFSGVPDRFSGSGSGTDFTLKISRVEAEDLGVYFCSQSTHIPFTFGGGTKLEIKR
B11: S009-F8-24.14 (antibody, human IgG1, kappa, V domains shown)
VH: EFQLQQSGPELVKPGASVKISCKASGYSFTDYNMNWVKLSNGKSLEWIGVIIPNYGTSSYNQKFKGKATLTVDQSSSTAYMQLNSLTSEDSAVYYCARWDNYYGSSLDYWGQGTTLTVSS
VL: B2 VL with I22T, S31T, C36Y, T72I, A99G, G100A, I106L
B12: S009-F8-27.1 (antibody, human IgG1, kappa, V domains shown)
VH: EVQLVESGGGLVKPGGSLKLSCAASGFTFSSYAMSWVRQTPEKRLEWVATISDGGNYTYYPDNVKGRFTISRDNAKNNLYLQMSHLKSEDTAMYYCAGDRGYPYAMDSWGQGTSVTVSS
VL: NIMMTQSPSSLAVSAGEKVTMSCKSSQSVLYSSNQKNYLAWYQQKPGQSPKLLIYWASTRESGVPDRFTGSGSGTDFTLTISNVHAEDLAVYYCHQYLSSLTFGAGTKLELKR
B13: S009-F8-29.1 (antibody, human IgG1, kappa, V domains shown)
VH: QVQLQQSGAELARPGASVKMSCKASGYTFISYTMHWVKQRPGQGLEWIGYINPSSGYTKYNQKFKDKATLTADKSSSTAYMQLNSLTSEDSAVYYCARYYSNPDYYAMDYWGQGTSVTVSS
VL: B1 VL with M21I, Y33H, Y35F, S41T, R44K, L46W, D49S, V59A, W90R, A99G
B14: S009-F8-31.22 (antibody, human IgG1, kappa, V domains shown)
VH: EVQLVESGGDLVKPGGSLKLSCAASGFTFSTYGMSWVRQTPDKRLEWVATISSGGSYTYYPDSLKGRFTISRDNAKNTLYLQMSSLKSEDTAMYYCARHEGYYYGKDYWGQGTTLTVSS
VL: DIVLTQSPATLSVTPGDSVSLSCRASHSISNNLHWYQQKSHESPRLLIKYASQSISGIPSKFSGSGSGTDFTLSINSVETEDFGMYFCQQTNSWPLTFGAGTKLELKR
B15: S009-F8-32.3 (antibody, human IgG1, kappa, V domains shown)
VH: QVQLKESGPGLVAPSQSLSITCTVSGFSLSSYAISWVRQPPGKGLEWLGVIWTGGGTNYNSALKSRLSISKDNSKSQVFLKMNSLQTDDTARFYCARNNYGRLDYAMDYWGQGTSVTVSS
VL: B10 VL with S32G, Y33N, A85T, I99V, G105S

Target: monkey MSLN full-length protein expressed on HEK293T cells (HEK293T-monkey MSLN) (monkey)
Assay: FACS on HEK293T-monkey MSLN cells

Compared with B1, B2 is 3.6-fold lower in EC50: 0.64 nM for the first, 0.18 nM for the second. The second is the more potent here.

First: B3
Second: B5
The EC50 of the first is 4.5-fold higher: 0.36 nM for the first, 0.08 nM for the second.

First: B6
Second: B7
The EC50 of the first is 2.6-fold lower: 0.15 nM for the first, 0.39 nM for the second.

Compared with B8, B9 is 2.7-fold lower in EC50: 0.81 nM for the first, 0.3 nM for the second.

Going from B10 to B11, the EC50 falls from 1.09 nM to 0.52 nM (2.1-fold).

Compared with B12, B15 is 3-fold lower in EC50: 2.05 nM for the first, 0.69 nM for the second.

First: B1
Second: B2
The Maximum mean fluorescence intensity of the first is higher: 35000 for the first, 20200 for the second.

Compared with B3, B4 is lower in Maximum mean fluorescence intensity: 112000 for the first, 348 for the second.

Going from B5 to B6, the Maximum mean fluorescence intensity falls from 21500 to 20500.

First: B7
Second: B8
The Maximum mean fluorescence intensity of the first is higher: 28200 for the first, 24900 for the second.

Compared with B9, B10 is higher in Maximum mean fluorescence intensity: 24900 for the first, 114000 for the second.

Compared with B11, B12 is lower in Maximum mean fluorescence intensity: 105000 for the first, 31300 for the second.

First: B13
Second: B14
The Maximum mean fluorescence intensity of the first is lower: 80 for the first, 3390 for the second.

Work on B15 yielded a Maximum mean fluorescence intensity of 112000.

Source: patent publication US20250250357A1
